# Results published in patent US20110009283A1.
# “And” between values parts separate entries of the source, which are not always exact repeats. Equal values may be shown once. Read-outs that look alike come from different tables or passages of the source. Where no end group is shown, it is not given here.
# T1: KcsA, wild-type, P0A334
# T1 chain: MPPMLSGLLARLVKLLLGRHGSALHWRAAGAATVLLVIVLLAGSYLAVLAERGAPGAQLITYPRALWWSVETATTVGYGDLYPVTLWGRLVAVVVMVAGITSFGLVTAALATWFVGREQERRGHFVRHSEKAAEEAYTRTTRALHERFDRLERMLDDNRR
# T2: Rattus Kv1.1 (Rattus), P10499
# T2 chain: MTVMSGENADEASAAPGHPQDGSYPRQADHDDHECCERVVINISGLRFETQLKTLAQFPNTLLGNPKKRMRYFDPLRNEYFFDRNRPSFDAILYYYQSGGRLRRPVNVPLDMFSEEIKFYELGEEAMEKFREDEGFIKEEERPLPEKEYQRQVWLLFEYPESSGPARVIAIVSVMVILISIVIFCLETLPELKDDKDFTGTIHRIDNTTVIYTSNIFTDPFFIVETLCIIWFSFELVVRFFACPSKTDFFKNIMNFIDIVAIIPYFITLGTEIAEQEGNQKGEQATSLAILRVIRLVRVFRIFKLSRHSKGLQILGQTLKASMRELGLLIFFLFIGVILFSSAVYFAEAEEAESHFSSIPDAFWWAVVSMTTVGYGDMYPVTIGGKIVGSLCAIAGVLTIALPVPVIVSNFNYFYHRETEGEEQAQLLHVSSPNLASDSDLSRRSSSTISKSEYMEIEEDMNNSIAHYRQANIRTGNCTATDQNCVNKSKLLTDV
# T3: Rattus Kv1.2 (Rattus), P63142
# T3 chain: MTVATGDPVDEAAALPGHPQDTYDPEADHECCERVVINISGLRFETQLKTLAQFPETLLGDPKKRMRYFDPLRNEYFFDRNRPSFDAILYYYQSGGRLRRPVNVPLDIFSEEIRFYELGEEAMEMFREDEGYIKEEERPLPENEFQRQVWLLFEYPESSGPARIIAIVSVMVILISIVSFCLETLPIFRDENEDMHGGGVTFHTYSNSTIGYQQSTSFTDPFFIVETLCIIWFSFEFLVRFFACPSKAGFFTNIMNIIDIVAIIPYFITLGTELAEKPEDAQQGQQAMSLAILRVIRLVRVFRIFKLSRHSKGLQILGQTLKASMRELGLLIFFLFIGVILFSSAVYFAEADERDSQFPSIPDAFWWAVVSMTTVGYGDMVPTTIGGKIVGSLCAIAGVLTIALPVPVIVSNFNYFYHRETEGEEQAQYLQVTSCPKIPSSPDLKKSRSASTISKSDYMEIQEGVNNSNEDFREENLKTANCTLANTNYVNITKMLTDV
# Columns and labels:
# KcsA, wild-type, P0A334 = molecular target: T1, KcsA, wild-type, P0A334; assay: phage panning of Shk / Camel VHH mixture on KcsA (n = 17-20)
# [1] = molecular target: T4, Kv1.3 K+ channel, wild-type, expressed in cells (species not stated) (Homo sapiens (Human)), P22001; assay: phage panning on HEK cells transfected with Kv1.3 vs vector; 5x10^11 phagemids
# T4 sequence (P22001 whole entry): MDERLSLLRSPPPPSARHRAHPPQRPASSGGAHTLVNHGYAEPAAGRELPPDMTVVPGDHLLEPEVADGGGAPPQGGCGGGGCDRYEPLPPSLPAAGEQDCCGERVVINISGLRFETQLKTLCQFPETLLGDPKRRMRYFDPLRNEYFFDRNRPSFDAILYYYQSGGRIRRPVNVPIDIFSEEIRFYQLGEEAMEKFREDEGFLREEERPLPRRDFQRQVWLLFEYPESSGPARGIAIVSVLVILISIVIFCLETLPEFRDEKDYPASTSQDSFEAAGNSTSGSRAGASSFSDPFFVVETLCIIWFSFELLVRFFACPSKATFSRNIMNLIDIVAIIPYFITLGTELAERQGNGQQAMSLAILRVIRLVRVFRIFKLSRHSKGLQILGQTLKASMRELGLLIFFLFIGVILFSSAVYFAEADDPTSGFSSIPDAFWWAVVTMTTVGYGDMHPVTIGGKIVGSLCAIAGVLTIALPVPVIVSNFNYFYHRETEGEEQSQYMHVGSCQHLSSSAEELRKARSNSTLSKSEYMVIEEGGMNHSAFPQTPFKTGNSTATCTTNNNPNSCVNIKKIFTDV
# [2] = molecular target: T4, Kv1.3 K+ channel, wild-type, expressed …
# [3] = molecular target: antiserum to sarafotoxin S6b
# [4] = molecular target: T4, Kv1.3 K+ channel, wild-type, expressed …; assay: cell-based or functional assay
# [5] = molecular target: T4, Kv1.3 K+ channel, wild-type, expressed …; remark: listed apart in the source
# [6] = molecular target: T4, Kv1.3 K+ channel, wild-type, expressed …; assay: phage panning on COS cells transfected with Kv1.3 vs vector; 5x10^11 phagemids
# [7] = molecular target: T4, Kv1.3 K+ channel, wild-type, expressed …; assay: panning of a 2:2:96 phage mixture on HEK cells expressing Kv1.3
# [8] = molecular target: T4, Kv1.3 K+ channel, wild-type, expressed …; assay: one round of phage panning on mammalian cells expressing Kv1.3
# [9] = molecular target: Homo Kv1.3 (Homo), P22001
# Sequence of Homo Kv1.3 (Homo), P22001 (P22001 whole entry): as above
# [10] = molecular target: T5, Mus BK (big conductance calcium-activated K channel) (Mus), Q08460
# T5 sequence (Q08460 whole entry): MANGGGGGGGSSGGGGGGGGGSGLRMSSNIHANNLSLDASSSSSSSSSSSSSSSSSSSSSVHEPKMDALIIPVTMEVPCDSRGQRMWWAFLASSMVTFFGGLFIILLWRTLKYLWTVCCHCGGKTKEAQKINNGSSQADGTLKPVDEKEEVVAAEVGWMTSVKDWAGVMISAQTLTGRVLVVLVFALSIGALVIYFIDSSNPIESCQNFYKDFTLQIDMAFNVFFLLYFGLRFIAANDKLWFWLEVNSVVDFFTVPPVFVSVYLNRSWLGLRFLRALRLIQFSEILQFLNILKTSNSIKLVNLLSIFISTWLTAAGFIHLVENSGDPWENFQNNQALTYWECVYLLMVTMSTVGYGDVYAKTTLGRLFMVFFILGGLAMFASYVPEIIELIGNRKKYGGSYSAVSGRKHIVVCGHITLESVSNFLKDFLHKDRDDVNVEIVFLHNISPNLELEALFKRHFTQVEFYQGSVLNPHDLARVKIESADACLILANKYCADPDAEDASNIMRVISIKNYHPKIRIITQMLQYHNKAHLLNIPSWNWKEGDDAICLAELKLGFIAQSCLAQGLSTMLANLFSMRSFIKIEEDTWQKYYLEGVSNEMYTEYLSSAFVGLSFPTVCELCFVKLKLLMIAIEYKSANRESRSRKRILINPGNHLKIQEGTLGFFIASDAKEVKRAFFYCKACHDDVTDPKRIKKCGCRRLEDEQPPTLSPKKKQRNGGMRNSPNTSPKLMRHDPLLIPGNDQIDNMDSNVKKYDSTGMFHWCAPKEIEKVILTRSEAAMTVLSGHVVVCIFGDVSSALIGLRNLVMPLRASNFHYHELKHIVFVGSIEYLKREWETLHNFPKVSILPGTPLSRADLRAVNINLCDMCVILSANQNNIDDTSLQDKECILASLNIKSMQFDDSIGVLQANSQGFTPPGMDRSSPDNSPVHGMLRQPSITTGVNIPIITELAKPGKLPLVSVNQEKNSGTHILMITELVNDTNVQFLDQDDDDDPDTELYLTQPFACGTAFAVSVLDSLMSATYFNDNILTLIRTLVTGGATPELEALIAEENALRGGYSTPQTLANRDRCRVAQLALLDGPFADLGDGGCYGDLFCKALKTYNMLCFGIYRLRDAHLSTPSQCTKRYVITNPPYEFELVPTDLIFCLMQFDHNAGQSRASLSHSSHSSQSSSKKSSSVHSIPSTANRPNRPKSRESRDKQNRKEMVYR
# [11] = molecular target: T2, Rattus Kv1.1 (Rattus), P10499
# [12] = molecular target: T3, Rattus Kv1.2 (Rattus), P63142
# [13] = molecular target: Kv1.1 K+ channel (species not stated); assay: cell-based or functional assay
# [14] = molecular target: BK channel (species not stated); assay: cell-based or functional assay
# [15] = molecular target: Kv1.2 K+ channel (species not stated); assay: cell-based or functional assay
# [16] = molecular target: Homo Kv1.3 (Homo), P22001; assay: two-electrode voltage clamp, kinetics of block in Xenopus oocytes
# [17] = molecular target: T5, Mus BK (big conductance …); assay: as above
# [18] = molecular target: T2, Rattus Kv1.1 (Rattus), P10499; assay: as above
# [19] = molecular target: T3, Rattus Kv1.2 (Rattus), P63142; assay: as above
# [20] = molecular target: T4, Kv1.3 K+ channel, wild-type, expressed …; remark: listed apart in the source
# [21] = molecular target: antiserum to sarafotoxin S6b; remark: listed apart in the source
# [22] = molecular target: KcsA-Kv1.3 (KcsA carrying a segment of the Kv1.3 pore loop)
binder,measurement,setting,value
RSCIDTIPKSRCTAFQCKHSMKYRLSFCRKTCGTC (modifications not checked) [Shk phage (sea anemone K+ channel toxin ShK on phage)],"% phages, OUTPUT","KcsA, wild-type, P0A334",0%
GVEINVKCSGSPQCLKPCKDAGMRFGKCMNRKCHCTPK (modifications not checked) [Kaliotoxin-1 phage (KTX-phage)],fold enrichment (Kv1.3-transfected vs vector cells),[1],20 fold
same,"% of recovered phage, 2nd round",[2],0%
same,"% of recovered phage, 3rd round",[2],58%
same,Output (% Ligands),[3],0%
same,"block of Kv1.3 currents, whole-cell patch-clamp in HEK293 cells, 1 nM KTX-phage",[4],35%
same,time to half reversal of inhibition on washing,[4],20 min
same,output KTX (%),[5],22% and 30% and 26%
same,fold enrichment (Kv1.3-transfected vs vector cells),[6],10 fold
same,% of phages after the 2nd panning,[7],40%
same,Fold Enrichment,[8],4.3 fold and 5.2 fold
GVEINVKCSGSPQCLKPCKDAGMRFGKCMNRKCHCTPK (modifications not checked) [Kaliotoxin-1 (KTX)],Ki,[9],0.008 nM
same,Ki,[10],1.6 nM
same,Ki,[11],1.1 nM
same,Ki,[12],20 nM
same,approximate IC50 (nM) of channel block,[13],0.1 nM
same,approximate IC50 (nM) of channel block,[14],5 nM
same,approximate IC50 (nM) of channel block,[4],0.5 nM
same,approximate IC50 (nM) of channel block,[15],1.4 nM
same,koff,[16],0.007 s⁻¹
same,kon,[16],8e+08 M⁻¹ s⁻¹
same,koff,[17],0.0211 s⁻¹
same,kon,[17],21000 M⁻¹ s⁻¹
same,koff,[18],0.009 s⁻¹
same,kon,[18],3e+07 M⁻¹ s⁻¹
same,koff,[19],0.21 s⁻¹
same,kon,[19],1.3e+07 M⁻¹ s⁻¹
GVPINVSCTGSPQCIKPCKDAGMRFGKCMNRKCHCTPK (modifications not checked) [Agitoxin-2 (AgTx2)],Ki,[9],0.041 nM
same,Ki,[11],0.17 nM
same,Ki,[12],3.4 nM
same,approximate IC50 (nM) of channel block,[13],0.04 nM
same,approximate IC50 (nM) of channel block,[14],1150 nM
same,approximate IC50 (nM) of channel block,[4],0.004 nM
same,approximate IC50 (nM) of channel block,[15],26.8 nM
"GVEINVKCSGSPQCLKPCKDAGMDFGDCMNDKCHCTPK (modifications not checked) [DDD-KTX-phage (inactive kaliotoxin-1, R24D, K27D, R31D, on phage)]","% of recovered phage, 2nd round",[2],100%
same,"% of recovered phage, 3rd round",[2],42%
same,"# of genotype, Test",[20],2 colonies
same,"% of genotype, Test",[20],10%
ZFTNVSCTTSKECWSVCQRLHNTSRGKCMNKKCRCYS (modifications not checked) [Charybdotoxin (CTX)],Ki,[9],0.9 nM
same,Ki,[10],5 nM
same,Ki,[11],> 1000 nM
same,Ki,[12],9 nM
same,approximate IC50 (nM) of channel block,[13],1500 nM
same,approximate IC50 (nM) of channel block,[14],3 nM
same,approximate IC50 (nM) of channel block,[4],2.5 nM
same,approximate IC50 (nM) of channel block,[15],5.6 nM
CSCKDMTDKECLYFCHQDVIW (cysteine pairing not given here; also: displayed on phage via linker and coat protein) [sarafotoxin S6b phage],Output (% Ligands),[21],100%
same,Output (% Ligands),[22],0%
